Read-outs that look alike come from different tables or passages of the source.

Experiment in all cases: SPR
On the technique in general: In SPR one partner is held on a chip, and binding of the other changes the refractive index at the surface.

In test [1] the target is T1, FcgRIIIa F (human, UniProt P08637).
For test [2], the target named is T2, FcgRIIb (human, UniProt P31994).
T2 chain: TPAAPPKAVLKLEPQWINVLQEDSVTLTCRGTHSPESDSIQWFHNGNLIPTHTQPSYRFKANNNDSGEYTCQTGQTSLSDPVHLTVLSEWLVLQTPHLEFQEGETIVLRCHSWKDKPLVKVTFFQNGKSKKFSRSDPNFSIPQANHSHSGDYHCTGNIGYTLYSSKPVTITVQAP

The target in test [3] is T3, FcgRIIa R (human, UniProt P12318).
T3 chain: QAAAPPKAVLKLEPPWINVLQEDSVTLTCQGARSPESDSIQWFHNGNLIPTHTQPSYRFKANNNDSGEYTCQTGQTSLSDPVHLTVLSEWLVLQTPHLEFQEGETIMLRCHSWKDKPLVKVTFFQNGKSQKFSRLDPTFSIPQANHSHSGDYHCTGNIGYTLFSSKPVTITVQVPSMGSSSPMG

Test [4] addresses T1, FcgRIIIa F. The source holds these as a separate data set.
For test [5], the target named is T4, FcgRIIa H (human, UniProt P12318).
T4 chain: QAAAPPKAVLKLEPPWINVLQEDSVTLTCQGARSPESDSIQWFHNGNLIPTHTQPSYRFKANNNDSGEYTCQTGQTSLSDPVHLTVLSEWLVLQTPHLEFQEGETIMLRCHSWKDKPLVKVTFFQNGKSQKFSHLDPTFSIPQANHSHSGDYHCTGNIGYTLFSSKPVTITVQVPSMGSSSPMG

For test [6], the target named is T5, FcgRIIIa V (human, UniProt P08637).
T5 sequence (P08637 17-208 F176V): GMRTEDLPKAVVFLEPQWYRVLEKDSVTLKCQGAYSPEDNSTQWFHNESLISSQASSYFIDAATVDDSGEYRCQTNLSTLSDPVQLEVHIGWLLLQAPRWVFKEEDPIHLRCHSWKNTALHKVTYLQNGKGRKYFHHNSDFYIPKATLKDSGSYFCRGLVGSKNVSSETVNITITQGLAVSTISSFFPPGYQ
Test [7] has as its target T2, FcgRIIb.
Test [8] has as its target T6, FcgRIa (human, UniProt P12314).
T6 chain: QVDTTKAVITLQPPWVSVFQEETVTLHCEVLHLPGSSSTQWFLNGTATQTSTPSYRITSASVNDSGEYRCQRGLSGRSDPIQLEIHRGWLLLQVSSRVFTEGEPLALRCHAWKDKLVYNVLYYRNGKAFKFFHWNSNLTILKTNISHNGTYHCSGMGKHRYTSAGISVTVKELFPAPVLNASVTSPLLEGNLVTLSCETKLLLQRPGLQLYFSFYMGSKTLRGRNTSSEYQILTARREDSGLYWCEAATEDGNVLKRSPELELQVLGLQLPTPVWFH

In test [9] the target is T2, FcgRIIb.
Test [10] concerns the target T4, FcgRIIa H.
Test [11] deals with T5, FcgRIIIa V. The source holds these as a separate data set.
The target of test [12] is T1, FcgRIIIa F. This is another data set of the same source.
Test [13] concerns the target T6, FcgRIa.
The target of test [14] is T2, FcgRIIb.
Test [15] addresses T3, FcgRIIa R.

T1 sequence (P08637 17-208): as the sequence (P08637 17-208 F176V) above, with V160F counted along it

B1: GpH7-A44/GpH7-B3/GpL16-k0 (antibody)
chain 1: QVQLVQSGAEVKKPGASVTVSCKASGYTFTDYEMHWIRQPPGEGLEWIGAIDPKTGDTAYSESFQDRVTLTADKSTSTAYMELSSLTSEDTAVYYCTRFYSYTYWGQGTLVTVSSASTKGPSVFPLAPSSKSTSGGTAALGCLVKDYFPEPVTVSWNSGALTSGVHTFPAVLQSSGLYSLSSVVTVPSSSLGTQTYICNVNHKPSNTKVDKKVEPKSCDKTHTCPPCPAPELLGGPSVFLFPPKPKDTLMISRTPEVTCVVVDVSHEDPEVKFNWYVDGVEVHNAKTKPREEQYNSTYRVVSVLTVLHQDWLNGKEYKCKVSNKALPAPEEKTISKAKGQPREPQVYTLPPSRKELTKNQVSLTCLVKGFYPSDIAVEWESNGQPENNYKTTPPVLDSDGSFFLYSKLTVDKSRWQQGNVFSCSVMHEALHNRYTQKSLSLSP
chain 2: not shown
chain 3: DIVMTQSPLSLPVTPGEPASISCQASESLVHSNRNTYLHWYLQKPGQSPQLLIYKVSNRFSGVPDRFSGSGSGTDFTLKISRVEAEDVGVYYCSQNTHVPPTFGQGTKVEIERTVAAPSVFIFPPSDEQLKSGTASVVCLLNNFYPREAKVQWKVDNALQSGNSQESVTEQDSKDSTYSLSSTLTLSKADYEKHKVYACEVTHQGLSSPVTKSFNRGEC
As usually defined, the Kd is the equilibrium constant for the complex coming apart. In the test with FcgRIIIa F [1], B1 displayed a Kd of 370 nM.

B2: GpH7-A44/GpH7-B80/GpL16-k0 (antibody)
chain 1: QVQLVQSGAEVKKPGASVTVSCKASGYTFTDYEMHWIRQPPGEGLEWIGAIDPKTGDTAYSESFQDRVTLTADKSTSTAYMELSSLTSEDTAVYYCTRFYSYTYWGQGTLVTVSSASTKGPSVFPLAPSSKSTSGGTAALGCLVKDYFPEPVTVSWNSGALTSGVHTFPAVLQSSGLYSLSSVVTVPSSSLGTQTYICNVNHKPSNTKVDKKVEPKSCDKTHTCPPCPAPELLGGPSVFLFPPKPKDTLMISRTPEVTCVVVDVSHEDPEVKFNWYVDGVEVHNAKTKPREEQYNSTYRVVSVLTVLHQDWLNGKEYKCKVSNKALPAPEEKTISKAKGQPREPQVYTLPPSRKELTKNQVSLTCLVKGFYPSDIAVEWESNGQPENNYKTTPPVLDSDGSFFLYSKLTVDKSRWQQGNVFSCSVMHEALHNRYTQKSLSLSP
chain 2: not shown
chain 3: DIVMTQSPLSLPVTPGEPASISCQASESLVHSNRNTYLHWYLQKPGQSPQLLIYKVSNRFSGVPDRFSGSGSGTDFTLKISRVEAEDVGVYYCSQNTHVPPTFGQGTKVEIERTVAAPSVFIFPPSDEQLKSGTASVVCLLNNFYPREAKVQWKVDNALQSGNSQESVTEQDSKDSTYSLSSTLTLSKADYEKHKVYACEVTHQGLSSPVTKSFNRGEC
In the test with FcgRIIIa F [1], B2 gave a Kd of 230 nM.

B3: GpH7-A5/GpH7-B80/GpL16-k0 (antibody)
chain 1: not shown
chain 2: not shown
chain 3: DIVMTQSPLSLPVTPGEPASISCQASESLVHSNRNTYLHWYLQKPGQSPQLLIYKVSNRFSGVPDRFSGSGSGTDFTLKISRVEAEDVGVYYCSQNTHVPPTFGQGTKVEIERTVAAPSVFIFPPSDEQLKSGTASVVCLLNNFYPREAKVQWKVDNALQSGNSQESVTEQDSKDSTYSLSSTLTLSKADYEKHKVYACEVTHQGLSSPVTKSFNRGEC
Molecule B3 returned a Kd with FcgRIIIa F [1] of 470 nM. Compared with the last molecule, the Kd is about 2-fold higher.

B4: H240-G1d/L73-k0 (antibody)
chain 1: not shown
chain 2: DIQMTQSPSSLSASVGDRVTITCRASQDIHKYIAWYQQKPGQAPRLLIQYTSTLQPGVPSRFSGSGSGTDYTFTISSLQPEDIATYYCLQYEQLRTFGGGTKVEIKRTVAAPSVFIFPPSDEQLKSGTASVVCLLNNFYPREAKVQWKVDNALQSGNSQESVTEQDSKDSTYSLSSTLTLSKADYEKHKVYACEVTHQGLSSPVTKSFNRGEC
Consider B4, for which the Kd worked out at 6000 nM with FcgRIIb [2]; 880 nM with FcgRIIa R [3]; 1400 nM in the test with FcgRIIIa F [4]; 660 nM with FcgRIIa H [5]; 310 nM with FcgRIIIa V [6]; 6100 nM with FcgRIIb [7]. This molecule also showed a Kd with FcgRIa [8] of 0.23 nM.

B5: H240-Kn033/H240-Hl033/L73-k0 (antibody)
chain 1: not shown
chain 2: not shown
chain 3: DIQMTQSPSSLSASVGDRVTITCRASQDIHKYIAWYQQKPGQAPRLLIQYTSTLQPGVPSRFSGSGSGTDYTFTISSLQPEDIATYYCLQYEQLRTFGGGTKVEIKRTVAAPSVFIFPPSDEQLKSGTASVVCLLNNFYPREAKVQWKVDNALQSGNSQESVTEQDSKDSTYSLSSTLTLSKADYEKHKVYACEVTHQGLSSPVTKSFNRGEC
On to B5, for which the Kd amounted to 3300 nM with FcgRIIb [9]; 520 nM with FcgRIIa H [10]; 4100 nM with FcgRIIb [2]; 48 nM with FcgRIIIa V [11]; 290 nM with FcgRIIIa F [12]; 1000 nM with FcgRIIa R [3]. Further, the Kd with FcgRIa [13] was 0.095 nM; in the test with FcgRIIIa F [4], 2600 nM; with FcgRIIa H [5] it was 930 nM; in the test with FcgRIIIa V [6], 390 nM; with FcgRIIb [14], 4200 nM; with FcgRIIa R [15], 740 nM. In addition, the Kd with FcgRIa [8] came to 0.25 nM.

B6: H240-Kn032/H240-Hl032/L73-k0 (antibody)
chain 1: QDQLVQSGAEVKKPGASVKVSCKASGFNIKDTYIQWVRQAPGQGLEWMGRIDPLRKQTKYREKFEGRVTITADTSTNTAYMELSSLRSEDTAVYYCVRSGREFDYWGQGTLVTVSSASTKGPSVFPLAPSSKSTSGGTAALGCLVKDYFPEPVTVSWNSGALTSGVHTFPAVLQSSGLYSLSSVVTVPSSSLGTQTYICNVNHKPSNTKVDKKVEPKSCDKTHTCPPCPAPELLGGPDVFLFPPKPKDTLMISRTPEVTCVVVDVSHEDPEVKFNWYVDGVEVHNAKTKPREEQYNSTYRVVSVLTVLHQDWLNGKEYKCKVSNKALPLPEEKTISKAKGQPREPQVCTLPPSRDELTKNQVSLWCLVKGFYPSDIAVEWESNGQPENNYKTTPPVLDSDGSFFLYSKLTVDKSRWQQGNVFSCSVMHEALHNHYTQKSLSLSP
chain 2: QDQLVQSGAEVKKPGASVKVSCKASGFNIKDTYIQWVRQAPGQGLEWMGRIDPLRKQTKYREKFEGRVTITADTSTNTAYMELSSLRSEDTAVYYCVRSGREFDYWGQGTLVTVSSASTKGPSVFPLAPSSKSTSGGTAALGCLVKDYFPEPVTVSWNSGALTSGVHTFPAVLQSSGLYSLSSVVTVPSSSLGTQTYICNVNHKPSNTKVDKKVEPKSCDKTHTCPPCPAPELLGGPDVFLFPPKPKDTLMISRTPEVTCVVVDVSHEDPEVKFNWYVDGVEVHNAKTKPREEQYNSTYRVVSVLTVLHQDWLNGKEYKCKVSNKALPLPEEKTISKAKGQPREPQVYTLPPSRCELTKNQVSLSCAVKGFYPSDIAVEWESNGQPENNYKTTPPVLDSDGSFFLVSKLTVDKSRWQQGNVFSCSVMHEALHNHYTQKSLSLSP
chain 3: DIQMTQSPSSLSASVGDRVTITCRASQDIHKYIAWYQQKPGQAPRLLIQYTSTLQPGVPSRFSGSGSGTDYTFTISSLQPEDIATYYCLQYEQLRTFGGGTKVEIKRTVAAPSVFIFPPSDEQLKSGTASVVCLLNNFYPREAKVQWKVDNALQSGNSQESVTEQDSKDSTYSLSSTLTLSKADYEKHKVYACEVTHQGLSSPVTKSFNRGEC
Consider B6, for which the Kd turned out to be 620 nM with FcgRIIb [2]; 340 nM in the test with FcgRIIa R [3]; 9.1 nM in the test with FcgRIIIa F [4]; 690 nM with FcgRIIa H [5]; 3.1 nM with FcgRIIIa V [6]; 630 nM in the test with FcgRIIb [14]. The Kd with FcgRIa [8] is 0.073 nM.

Values taken from patent US10766960 (dated 2020).
